Substitutions are numbered along the chain they refer to. Values belong to the binder of their own block, whether it stands above or below them.
Biological target: T1, Biotinylated N-Avitagged-TEAD4^217-434 (UniProt Q15561 217-434, biotin (biotinylated Avitag))
T1 construct: TEAD4, residues 217-434; not shown: Avitag, N-terminal, kept
Test: FRET or BRET; TR-FRET competition: biotinylated N-Avitagged TEAD4 217-434 (1 nM) on LANCE Eu-W1024 streptavidin (0.5 nM), Cy5-labelled YAP as tracer, serial dilutions of the YAP proteins; 50 mM HEPES pH 7.4, 100 mM KCl, 0.05% Tween-20, 0.25 mM TCEP, 0.05% BSA, 2% DMSO; 1 h at room temperature
Conditions: both partners purified

T1 sequence (Q15561 217-434): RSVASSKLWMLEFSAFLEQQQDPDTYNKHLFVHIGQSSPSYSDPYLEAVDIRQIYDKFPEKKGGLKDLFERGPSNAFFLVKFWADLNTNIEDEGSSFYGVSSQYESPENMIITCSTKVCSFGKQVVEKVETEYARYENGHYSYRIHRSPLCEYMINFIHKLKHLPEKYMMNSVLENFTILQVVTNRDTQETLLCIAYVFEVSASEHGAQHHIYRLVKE

B1: YAP^50-171 (domain or fragment, UniProt P46937 50-171, looked up)
chain: AGHQIVHVRGDSETDLEALFNAVMNPKTANVPQTVPMRLRKLPDSFFKPPEPKSHSRQASTDAGTAGALTPQHVRAHSSPASLQLGAVSPGTLTPTGVVSGPAATPTAQHLRQSSFEIPDDV
notes: YAP (Yes-associated protein), residues 50-171; 15N-labelled in the intermolecular PRE control; also called YAP^wt; Yes-associated protein; source: E. coli Tuner(DE3), purified (HisTrap FF, 3C protease cleavage, heating to 90°C, size exclusion); not shown: His6, N-terminal, cleaved
binding result: binds

B2: YAP^50-171 T119C (domain or fragment, UniProt P46937 50-171, looked up)
chain: B1 chain with T70C
notes: YAP (Yes-associated protein), residues 50-171; source: E. coli Tuner(DE3), purified (HisTrap FF, 3C protease cleavage, heating to 90°C, size exclusion; buffers with 1 mM DTT); not shown: His6, N-terminal, cleaved
binding result: binds

B3: YAP^50-171 A71C (domain or fragment, UniProt P46937 50-171, looked up)
chain: B1 chain with A22C
notes: as for B2
binding result: binds

B4: YAP^50-171 D60C (domain or fragment, UniProt P46937 50-171, looked up)
chain: B1 chain with D11C
notes: as for B2
binding result: binds

B5: YAP^50-171 V80C (domain or fragment, UniProt P46937 50-171, looked up)
chain: B1 chain with V31C
notes: as for B2
binding result: binds

Now from value to binder:

binding result: binds
B6: YAP^50-171 S138C (domain or fragment, UniProt P46937 50-171, looked up)
chain: B1 chain with S89C
notes: as for B2

binding result: binds
B7: YAP^50-171 S127C (domain or fragment, UniProt P46937 50-171, looked up)
chain: B1 chain with S78C
notes: as for B2

binding result: binds
B8: YAP^50-171 Q158C (domain or fragment, UniProt P46937 50-171, looked up)
chain: B1 chain with Q109C
notes: as for B2

binding result: binds
B9: YAP^50-171 S164C (domain or fragment, UniProt P46937 50-171, looked up)
chain: B1 chain with S115C
notes: as for B2

binding result: binds
B10: YAP^50-171 S149C (domain or fragment, UniProt P46937 50-171, looked up)
chain: B1 chain with S100C
notes: as for B2

binding result: binds
B11: YAP^50-171 S103C (domain or fragment, UniProt P46937 50-171, looked up)
chain: B1 chain with S54C
notes: as for B2

binding result: binds
B12: YAP^50-171 K90C (domain or fragment, UniProt P46937 50-171, looked up)
chain: B1 chain with K41C
notes: as for B2

From publication PMC8976148, “Long-range structural preformation in yes-associated protein precedes encounter complex formation with TEAD” (iScience, 2022)
